Reference: patent US12466859B2, “Desmoglein 2 (DSG2) binding proteins and uses therefor” (UNIVERSITY OF WASHINGTON THROUGH ITS CENTER FOR …, priority 2013, dated 2025)

Target: T1, soluble recombinant DSG2 (Homo sapiens, UniProt Q14126)
T1 construct: Western blot using soluble recombinant DSG2 as a probe; purchased Leinco Technologies, Inc. (St. Louis, MO)
T1 sequence (Q14126 50-609 limits assumed): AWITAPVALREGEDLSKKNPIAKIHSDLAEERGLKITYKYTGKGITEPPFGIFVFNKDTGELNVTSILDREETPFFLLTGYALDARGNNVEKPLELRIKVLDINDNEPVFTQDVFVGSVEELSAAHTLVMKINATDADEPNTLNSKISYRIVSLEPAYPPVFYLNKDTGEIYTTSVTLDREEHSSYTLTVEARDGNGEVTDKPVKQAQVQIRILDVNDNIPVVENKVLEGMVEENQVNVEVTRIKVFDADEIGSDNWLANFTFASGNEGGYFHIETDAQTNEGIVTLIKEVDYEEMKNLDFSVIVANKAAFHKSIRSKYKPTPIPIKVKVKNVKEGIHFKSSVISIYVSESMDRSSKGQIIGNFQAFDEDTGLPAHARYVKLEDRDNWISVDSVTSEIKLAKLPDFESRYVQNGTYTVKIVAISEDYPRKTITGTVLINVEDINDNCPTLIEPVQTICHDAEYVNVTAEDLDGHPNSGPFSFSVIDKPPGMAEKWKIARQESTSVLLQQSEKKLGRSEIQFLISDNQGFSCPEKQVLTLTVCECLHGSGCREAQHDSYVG
Experiment: Western blot of dimeric Ad3 fiber knob mutants with soluble recombinant DSG2 as probe
Assay type: binding
Settings: dimerized knob mutants compared to JO-1
Description: FIG. 1A-1F. Residues found to be critically involved in binding to DSG2. FIG. 1A) Shown are the amino acid sequences of the Ad3 and Ad14p1 fiber knob. Beta sheets present in the Ad3 knob (PDB accession number 1H7Z_A) and Ad14 knob (PDB: 3F0Y_A) are indicated by lines. Black arrows indicate residues within the Ad3 fiber knob which, when mutated individually, ablate or reduce binding to DSG2. […] FIG. 1B) Schematic structure of dimeric Ad3 fiber knob mutants. The fiber knob domain and one shaft motif was fused through a flexible linker to a homodimerizing K-coil domain (41). The proteins are self-dimerizing and can be purified by His-Ni-NTA affinity chromatography. FIG. 1C-FIG. 1F) Analysis of binding of dimeric Ad3 fiber knob mutants to soluble DSG2. FIG. 1C and FIG. 1D) Coomassie staining. 10 μg of purified Ad3 fiber knob (unboiled) were loaded per lane. Trimeric forms of the fiber knobs are indicated by an arrow. The gel contained SDS and the loading buffer containing DTT, which caused the disassembly of dimers of trimeric fiber knobs as previously reported (41). FIG. 1E and FIG. 1F): Western blot using soluble recombinant DSG2 as a probe, followed by anti-DSG2-mAb and anti-mouse IgG-HRP. For comparison, JO-1 (0.5 μg/lane) is shown. The Western blots were scanned and signals were quantified.
Western Blot: Mini-PROTEAN precast gels (BIO-RAD, Hercules, CA) with 4-15% gradient polyacrylamide were used. A total of 1 μg protein mixed with 2× loading buffer (10 mM Tris-HCl, pH6.8, 200 mM DTT, 4% SDS, 20% glycerol, 0.2% bromophenol blue) was loaded per lane. Samples were either boiled (B) for 5 min or loaded unboiled (UB). The following running buffer was used: 25 mM Tris, pH8.3, 0.192 M glycine, 0.1% SDS. After electrophoresis, proteins were transferred to nitrocellulose and incubated with recombinant human DSG2 protein and anti-DSG2 antibodies as described previously (42). The Western blots were scanned and quantified using the ImageJ 1.32 software (National Institutes of Health, Bethesda, MD). JO-1 band intensity was set as 100%. […]

B1: D261N (protein)
chain: MKVSALKEKVSALKEKVSALKEKVSALKEKVSALKEGSGGGSGGGSGGGSNSIALKNNTLWTGPKPEANCIIEYGKQNPDSKLTLILVKNGGIVNGYVTLMGASDYVNTLFKNKNVSINVELYFDATGHILPDSSSLKTDLELKYKQTADFSARGFMPSTTAYPFVLPNAGTHNENYIFGQCYYKASNGALFPLEVTVMLNKRLPDSRTSYVMTFLWSLNAGLAPETTQATLITSPFTFSYIREDD
DSG2 binding in Western blot, in words: almost completely ablated
